Test results reported in publication doi:10.1101/2021.02.09.429966 (bioRxiv, 2021).

Molecular target: Clumping factor A (ClfA) on S. aureus LACΔspaΔsbi (Staphylococcus aureus USA300 LAC Δspa, …, UniProt A0A0H2XG16)
Test: flow cytometry on cells

- binding result: binds
B1: T1-2-IgG1 (antibody, V domains shown)
VH: QVQLKESGPGLVAPSQSLSITCAISGFSLSRYSVHWVRQPPGKGLEWLGMIWGGGNTDYNSALKSRLSISKDNSKSQVFLKMNSLQTDDTAMYYCARKGEFYYGYDGFVYWGQGTLVTVSA
VL: NIMMTQSPSSLAVSAGEKVTMSCKSSQSVLYSSNQKNYLAWYQQKPGQSPKLLIYWASTRESGVPDRFTGSGSGTDFTLTISSVQAEDLAVYYCHQYLSSYTFGGGTKLEIK
